Measurements: the DeepSol protein solubility set

Experiment: soluble on expression in E. coli; label from the status in PepcDB or PDB records

**Q.** Which “soluble on expression in E. coli” value does the source give for “MEIVLTREKMEITATPIRTRYIDRNEDFVSESIHSLKKEIENGFEIKNGDFLVVSEKFIATSEDNFVDESLADPKFWAYFTYYLSKYGWGYVLGPLLGTRGDRVKNLRKMPKTETLKHKQIVIENVGLIYALKPASEGGIDLTNVPGTYASLLPENPEYSAKKLHKKIKEDLDLDLTVMVIDTDATYRFFNWYVTALPIAVEGITSKIGVFGYILGKFGKILNQGGLCGATPLAITGNENYKKYPLKTLLYIANLSDTSQVPYTKSIHDLMKKYNTFEITVDVLKEMEHSPLVIVKCE” here?
**A.** not soluble

**Q.** For “MGSDKIHHHHHHMDNLVDVFCDVDDFCAVFMPQWKKQCVTDGTRKRQRSSRMDMSEIMTIIILFHTSHHRDFKNYYTGYLARFFKSDFPHLLSYTRFLELMPTAVVPLCSYFSSIRSLPTGIEFVDSTSVKVCHNLRIPRHKTLSGLARRGKGTMGWFYGFKLHLIVNHKGGIVAAKITPANTHDTKPVSGMVVNAMDKLYADKGYISKALASELLEQGVTLVNNVRKNMKKKVLSLWDRAMLSRRFIIETINDQLKNISQIEHSRHRSVHGFMLNMIGGLIAYQLKESKPQLNITDVDFNAISVMA”, which “soluble on expression in E. coli” value is on record?
**A.** not soluble

**Q.** With “MGHHHHHHSHMGGLPMISASLQQRKTRTRRSMLFVPGANAAMVSNSFIYPADALMFDLEDSVALREKDTARRMVYHALQHPLYRDIETIVRVNALDSEWGVNDLEAVVRGGADVVRLPKTDTAQDVLDIEKEILRIEKACGREPGSTGLLAAIESPLGITRAVEIAHASERLIGIALGAEDYVRNLRTERSPEGTELLFARCSILQAARSAGIQAFDTVYSDANNEAGFLQEAAHIKQLGFDGKSLINPRQIDLLHNLYAPTQKEVDHARRVVEAAEAAAREGLGVVSLNGKMVDGPVIDRARLVLSRAELSGIREE” as the sequence, how does the “soluble on expression in E. coli” value read?
**A.** not soluble

**Q.** With “RKRNRIPLRCTICRKRKVKCDKLRPHCQQCTKTGVAHLCHYMEQTWAEEAEKELLKDNELKKLRERVKSLEKTLSKVHSSP” as the sequence, how does the “soluble on expression in E. coli” value read?
**A.** soluble

**Q.** Which “soluble on expression in E. coli” value does the source give for “MDKDMQLIRGLHNANRVLQGCALTIGNFDGVHLGHQTVLRHLRQKADELNLPMAVLLFESQPREYFMGKNAPARLMRLRDKIYYLEKAKVDVVIVAKFDRTFAEQLADVFIEQTLVNHLHVKFLSIGDDFKFGSKRQGNFAMLQAASKRFGFIVEDNRSFCLDAQRISSTAIREALANDDLQLAENLLGKPYRIFGRVIHGNKLGRTIGFPTANIRLHRQVNPIKGVYAVKVRLKSGEIFNGVANMGKRPTINGLMQLLEVHLFDFSQNIYGQMVEVEFCHKIRNEIKFPSFDDLKVQIEKDVETAKAFFNSLEHHHHHH” here?
**A.** not soluble

**Q.** For “MNKLQSYFIASVLYVMTPHAFAQGTVTIYLPGEQQTLSVGPVENVAQLVTQPQLRDRLWWPGALLTDSAVKAKALKDYQHVMAQLASWEAEADDDVAATIKSVRQQLLNLNITGRLPVKLDPDFVRVDENSNPPLVGNYTLYTVQRPVTITLLGAVSGAGQLPWQAGRSVTDYLQDHPRLAGADKNNVIVITPEGETVVAPVALWNKRHVEPPPGSQLWLGFSAHVLPEKYADLNDQIVSVLTQRVPD”, which “soluble on expression in E. coli” value is on record?
**A.** soluble

**Q.** With “MYNVEIRRPNSDDLEELHSFFRIVITNTFKDEGLSQLSDDIENEINTKKQYLKNDFDSNGEKRYFLLAIDTNNDKIIGTIEVGPASTLINSCTGGVLKDLYEIGTVFILPEYQKKGIGSFLLHTMFLTLLSRGITEYCLDSGYKKAQSIWTKKFGEPSYVLKDYWGESSDHMIWKKSLYDTPIIFELMAGDPLEHHHHHH” as the sequence, how does the “soluble on expression in E. coli” value read?
**A.** soluble

**Q.** With “MTKENTKSIADDGPYSGSFYGLAEDNANHGIFSSILKRKKRQQDKLSEDVKKRCGRVESYKSCCDRLHQALMYMLVENAVTSKQLVTGARTEPHYRYAGQYLKTYEIIANQGRDKTKYESLEPAIKALLTLDSEHEKKVRKQLENLKPLTKFIGEDYWEYVRLKKVYAESVDGYDEAVVLQNKGKTEDAETAATNAQTWMNDCRTKLMDFITVSISQQKAKHADCVLKFRDESVSYHKIMADSITTPEPAEGKSVVKTLKQ” as the sequence, how does the “soluble on expression in E. coli” value read?
**A.** not soluble

**Q.** For “MLSSKEVYARLDAILPSSVDREDAESNLNAGEIEYAITALLDDAYTSVGLSDAVVSLIRENYDDGPVIDMLDALLYFQKLNSGGDAVRMQR”, which “soluble on expression in E. coli” value is on record?
**A.** not soluble

**Q.** With “MFCFLQLPYHPNSSVHISTIDRITNSGRLYQYYSAEMTAEVIDFTKRNLEEAMNHNERRLLFRRSRSEPMTLTNENITMTSRTDPEWNMTVDSISIQSSFAEYQHRRKERLKKQEAHKTSEISLSSGPSELAMKGHTDFDAAIEFLDNKMPSTLSLTDSDNSHSSNDITSSQAKEISYEDEMRLFIEKTGHLVTNVFADPFDSDERKSRTEMWVEASTENLAEGGTTSDDVPTEKELELDMENNDILAESVVGTGTGELNDEKDEETVPVGLIPPVARQSTEDSILSSNVTVNSLLKSKLTINLKEASEALSEIDIADVDRFWDYLYEKDDIQKFSDELIYPIKMEIPSTSSSERSIGIALSPIKLDFAGIHVQKTGKIEKHIKMNSNEEKDRELDEPLEITDQTVETRFFELETTKNLEKINRGTTTSEHGNILIKTTASQTPVSQEVVQLVNYEPINFTKAQSDRNFDEKENMIRAFSFKLSESFYKDLKILVVERDRAKEAMDILPAKTMKELSEECNYYQTRYRVRIEQNKEKLDRRIEEVWKKLLKMPIESQEVIDFISVAHSELLTLNARRNLPDNM” as the sequence, how does the “soluble on expression in E. coli” value read?
**A.** not soluble

**Q.** Which “soluble on expression in E. coli” value does the source give for “MGHHHHHHSHMKFRAKIVDGACLNHFTRISNMIAKLAKTCTLRISPDKLNFILCDKLANGGVSMWCELEQENFFNEFQMEGVSAENNEIYLELTSENLSRALKTAQNARALKIKLTNKHFPCLTVSVELLSMSSSSRIVTHDIPIKVIPRKLWKDLQEPVVPDPDVSIYLPVLKTMKSVVEKMKNISNHLVIEANLDGELNLKIETELVCVTTHFKDLGNPPLASESTHEDRNVEHMAEVHIDIRKLLQFLAGQQVNPTKALCNIVNNKMVHFDLLHEDVSLQYFIPALS” here?
**A.** soluble

**Q.** With “MENNLAEFERRAEKNLLIMCKEKEKLQKKAHELKRRLLLSQRKRELADVLDAQIEMLSPFEAVATRFKEQYRTFATALDTTRHELPVRSIHLEGDGQQLLDALQHELVTTQRLLGELDVGDSEENVQVLDLLSELKDVTAKKDLELRRSFAQVLELSAEASKEAALANQEVWEETQGMAPPSRWYFNQDSACRESGGAPKNTPLSEDDNPGASSAPAQATFISPSEDFSSSSQAEVPPSLSRSGRDLS” as the sequence, how does the “soluble on expression in E. coli” value read?
**A.** soluble

**Q.** With “MGSDKIHHHHHHLPENAASLGCGAWKGDTVSIEAGGMNRRVGEIVGQVLARLRPKAKSLIITVYGDAISHHGGSAWLGSVINLVEPLGLNERIVRTSVFRLSKEAWLSSMQIGRRSYYRLTEMGRRRFEAAHNRIYHYNGKPWDGRWTLAVTNIDGMDAERRDSLRRDLGWLGFGQLASGVMVHPDPDQSAVRQALAEAGVQDRAVMMTAAAEDWVTPEALRDLIHTCWDLERLASDYNEFLDTFRPLWQVLSGNGDLDPQMCFVVRTLLMHGYRRALLRDPMLPDELLPANWPGTSARVLCRNLYRLVQAAAETHVMGMLETAEGPVPEAHPAYYTRFGGLQSAD” as the sequence, how does the “soluble on expression in E. coli” value read?
**A.** not soluble

**Q.** Which “soluble on expression in E. coli” value does the source give for “MSGFSVYVGNAPFQTTEDDLGNYFSQAGNVSNVRIVCDRETGRPRGFAFVEFTEEAAAQRAVDQFNGVDFNGRALRVNLAQNRNN” here?
**A.** not soluble

**Q.** For “MGSDKIHHHHHHMSILEVRGIEKTYSGKRILKAVSFDLESGKLTVLGGLNGIGKSTLIKMMSGDIRPDSGEIVFDGHHVELRSIVEARRIGLSAVYQEYMLVPDLTVAENIFLGSGKFTISRKKMNSEASRLLSKFGLSFDPSSKVSSLSSDEQALLEFAAAVFSEPKVLMIDDLFSVLQTESRKRLLQMIEVIKNKGTAVLVVTTDPDLMLMADHLLFMDESGVEYLPCPIERGAILERMGASSDFSILPAEGELLIEISNLAGSGQDLSLKRGEVLNIFCESGELVRAFTRAMIRQDPFTDNSVPLFREAKSFFDRFSSRSSSTPAEKYFCSNLKNTGLVSQVMLKKSGSFKSSKSLKKSFILNKESVVSVKSFLAGLERIPGFSGLVSEEDKKLSQLRFDACDLYVFVRPLLGLDPVSVNALSTVLQEIVNRSKAAVIISDEAGSSMLSTRKMRSSE”, which “soluble on expression in E. coli” value is on record?
**A.** not soluble

**Q.** Which “soluble on expression in E. coli” value does the source give for “MEIKQTIAKNLNRVKNELGLKNQDLAEVMGVTRQTIAKYLKGEQIPDSAKLFLLSRRLNIPMKDLIVSSDDQREPMSSFMFRADNPKENFRLIDQNQVNRIMDDYYELLASFGEASVAYLPPTYKLKLVDHELTEEHKTIIRQAAEQTRKMFGLDHVIPSDIYAVLEHHGIHVIALKTIDKKIDGLSAYSEEKGAFIFLNDHDEIPEERKRFSVIHELGHLIFHREEYRSDLSSLTYSSARREINEKVATLFASYFLIPREQLREYAYYFKRYVTIETIMELKRQFFVSAEAFMRALLDEQYISGRTYGFLRKTLREQGYKEQEPAPIDYIPKNRKLTYFVKQAYFEGSITINKVCEILGCDLRTAREMIKGWYKEHGCSENTGAL” here?
**A.** not soluble

**Q.** Which “soluble on expression in E. coli” value does the source give for “MNTIVVAQLQRQFQDYIVSLYQQGFLDNQFSELRKLQDEGTPDFVAEVVSLFFDDCSKLINTMSISLERPDNVDFKQVDSGVHQLKGSSSSLCFVLSVGARRVKNVCISFKECCDVQNREGYSSNSHTNCDNDIWHRCLRCLQQVDYEYKMLKTKLQDLFNVSFKLCENLLVLLLEKQILQAGGTIPQVDIN” here?
**A.** soluble

**Q.** For “MSSDRIVITGVAINTPIGDTLDLVGNNLLSGKSAIGYWRNFDTSNIYSKIGGQIPEYDIEGKLHAFSNRIPDIVLSRAEKVFKQTTKGVQLSVLMAMEAWLDAGLFEHIIDPFDCGIICGGHNLSDKYLLDQQKIFSDEPEFIDAFSGLNSLDTDHSSSVAQVLNTKGFAYLVGGTCATGNIAIQTAINAIKVDKKQVVAVVCPMASFHPMMLHSLTILEAICYSQYQDTPTKASRPYDINRSGFLPSEGGAVLIFEQAEHAKNRGAKIYAELLGASVNSDANHLGDPSHEGQVRVIQDVLKKCNISPEQVDYVSAHATSTKLGDIVELKSIKRVFGSHAEKLIINAPKSLLGHTMWASGVVEAAIAIWQMRQGEFHQSHNIETLDPAVELNVCASGNVKKEVNIFLNNSFGMGGINSASLFSRYHG”, which “soluble on expression in E. coli” value is on record?
**A.** not soluble

**Q.** Which “soluble on expression in E. coli” value does the source give for “MVYDLIVIGGGSGGMAAARRAARHNAKVALVEKSRLGGTCVNVGCVPKKIMFNAASVHDILENSRHYGFDTKFSFNLPLLVERRDKYIQRLNNIYRQNLSKDKVDLYEGTASFLSENRILIKGTKDNNNKDNGPLNEEILEGRNILIAVGNKPVFPPVKGIENTISSDEFFNIKESKKIGIVGSGYIAVELINVIKRLGIDSYIFARGNRILRKFDESVINVLENDMKKNNINIVTFADVVEIKKVSDKNLSIHLSDGRIYEHFDHVIYCVGRSPDTENLKLEKLNVETNNNYIVVDENQRTSVNNIYAVGDCCMVKKSKEIEDLNLLKLYNEERYLNKKENVTEDIFYNVQLTPVAINAGRLLADRLFLKKTRKTNYKLIPTVIFSHPPIGTIGLSEEAAIQIYGKENVKIYESKFTNLFFSVYDIEPELKEKTYLKLVCVGKDELIKGLHIIGLNADEIVQGFAVALKMNATKKDFDETIPIHPTAAEEFLTLQPWMK” here?
**A.** soluble

**Q.** With “MSLTKAYTIVIKLGSSSLVDESTKEPKLSIMTLIVETVTNLKRMGHKVIIVSSGGIAVGLDALNIPHKPKQLSEVQAIAAVGQGRLIARWNMLFSQYGEQTAQILLTRNDILRWNQYNNARNTINELLAMGVIPIVNENDTLSISEIEFGDNDTLSAITAALVGADFLFLLTDVDCLYTDNPRTNPDARPIVLVPELSEGLPGVNTSSGSGSEVGTGGMRTKLIAADLASNAGIETIVMKSDRPEYVPKIVDYIQHHFRPPRHIGNGTQQQFLDLQDTELEQLRRYDVPMHTKFLANDNKHKLKNREFWILHGLITKGAIIIDENSYDKLLSKDMASLTPNAVIEVRDNFHELECVDLKIGQRLPNGELDISKPIQSVGCVRSNYTSLELAKIKGLPSEKIHDVLGYSVSEYVAHRENIAFPPQFEGHHHHHH” as the sequence, how does the “soluble on expression in E. coli” value read?
**A.** not soluble

**Q.** Which “soluble on expression in E. coli” value does the source give for “MKRFRKNNLELELIRELSEIDFYNISAPLNSKEFWKEWQEKFNRANLTRIALRNILRNKRLSPKEYRKVKNSIKKYEDIINYLNALKLTALNARGSFGGYFIEFDEDEEENEGGT” here?
**A.** not soluble
